Like-named read-outs stand apart in the source and are kept apart here.
B1: 2-9 (antibody, V domains shown)
VH: EVQLLESGGGLVQPGGSLRLSCAASGFTFPRYAMSWVRQAPGKGLEWVSTISGSGSTTYYADSVKGRFTISRDNSKNTLYLQMNSLRAEDTAVYYCARLIDAFDIWGQGTLVTVSS
VL: DIQMTQSPSSLSASVGDRVTITCRASQRIGTYLNWYQQKPGKAPKLLIYAASNLEGGVPSRFSGSGSGTDFTLTISSLQPEDFATYYCQQNYSTTWTFGQGTKVEIK
notes: also called variant 2-9
B2: 2-16 (antibody, V domains shown)
VH: EVQLLESGGGLVQPGGSLRLSCAASGFTFSSYAMSWVRQAPGKGLEWVSVISGSGGSTYYADSVKGRFTISRDNSKNTLYLQMNSLRAEDTAVYYCAREGYRDYLWYFDLWGQGTLVTVSS
VL: DIQMTQSPSSLSASVGDRVTITCTGTSSDVGSYDLVSWYQQKPGKAPKLLIYEGNKRPSGVPSRFSGSGSGTDFTLTISSLQPEDFATYYCCSYAGSSVVFGQGTKVEIK
notes: also called variant 2-16
B3: 2-8 (antibody, V domains shown)
VH: EVQLLESGGGLVQPGGSLRLSCAASGFTFSDFAMAWVRQAPGKGLEWVSAISGSGDITYYADSVKGRFTISRDNSKNTLYLQMNSLRAEDTAVYYCAREADGLHSPWHFDLWGQGTLVTVSS
VL: DIQMTQSPSSLSASVGDRVTITCRASQSIDTYLNWYQQKPGKAPKLLIYAASALASGVPSRFSGSGSGTDFTLTISSLQPEDFATYYCQQSYSAPPYTFGQGTKVEIK
notes: also called variant 2-8

Tests used:
SARS-CoV-2 S1 protein [1] = biological target: T1, SARS-CoV-2 S1 protein (SARS-CoV-2, UniProt P0DTC2 16-685)
SARS-CoV-2 S1 protein [2] = biological target: T1, SARS-CoV-2 S1 protein; remark: listed apart in the source
SARS-CoV-2 S1 protein [3] = biological target: T1, SARS-CoV-2 S1 protein; test: inhibitor ELISA, competitor ACE2
SARS-CoV-2 S1 protein [4] = biological target: T1, SARS-CoV-2 S1 protein; test: phage ELISA screen on S1, mean
SARS-CoV-2 S1 protein [5] = biological target: T1, SARS-CoV-2 S1 protein; test: phage ELISA screen on S1, mean; remark: listed apart in the source
SARS-CoV-2 S1 protein [6] = biological target: T1, SARS-CoV-2 S1 protein; test: Carterra SPR, Fc capture, S1
SARS-CoV-2 S1 protein [7] = biological target: T1, SARS-CoV-2 S1 protein; test: Carterra SPR, direct capture (DC), S1
SARS-CoV-2 S1 protein [8] = biological target: T1, SARS-CoV-2 S1 protein; test: inhibitor ELISA, competitor ACE2; remark: listed apart in the source
SARS-CoV-2 S1 protein [9] = biological target: T1, SARS-CoV-2 S1 protein; test: ELISA binding titration on coated antigen

Row | Binder | EC50 (SARS-CoV-2 S1 protein [1]) [nM] | IC50 (SARS-CoV-2 S1 protein [2]) [nM] | IC50 (SARS-CoV-2 S1 protein [3]) [nM] | ELISA(Avg) (SARS-CoV-2 S1 protein [4]) [fold over background] | ELISA(Avg) (SARS-CoV-2 S1 protein [5]) [fold over background] | Kd (SARS-CoV-2 S1 protein [6]) [nM] | Kd (SARS-CoV-2 S1 protein [7]) [nM] | IC50 (SARS-CoV-2 S1 protein [8]) [nM] | EC50 (SARS-CoV-2 S1 protein [9]) [nM]
1 | B1 | 12.6 | 23.2 | – | – | – | – | – | – | –
2 | B2 | – | – | 433 | 7.1 | 7.1 | – | – | – | –
3 | B3 | – | – | – | 32.4 | – | 52.8 | 33.4 | 12.2 | 0.08

Reference: patent US20210355194A1 (TWIST BIOSCIENCE, published 2021)
